From US8956838B2, “Carboxyl esterase polypeptides” (B.R.A.I.N., priority 2006, dated 2015)

Columns and labels:
Format in all cases: biochemical
[1] = Determination of thermal stability
Method: To assay the thermostability of the enzymes they were incubated at different temperatures for one hour and the residual activity assayed at 10 minute intervals. Residual activity was measured using pNP-caproate as substrate as described above.

[2] = Solvent stability, residual activity; settings: for Residual activity after 1 h incubation in the presence of solvent: 1 h at 30° C., measured at 45° C.; for activity in the presence of solvent, levels up to: both concentrations (15% and 30% v/v)
Method: The stability of the enzymes was determined in the presence of the following solvents: DMSO, isopropanol, methanol, dimethylformamide, acetone and acetonitrile. The enzymes were incubated for 1 hour at 30° C. in the presence of either 15% (v/v) or 30% (v/v) of the solvents and the residual activity was measured at 45° C. The substrate used was pNP-butyrate.

[3] = Determination of pH optimum by titration; settings: incubation for up to 48 hours, up to pH 12 (data not shown)
Method: The pH optimum for the enzymes was determined using tributyrin as substrate. The incubation conditions were 20 ml buffer (2.5 mM phosphate buffer [pH 4-7], 2.5 mM Tris/HCl buffer [pH 7-11] or 2.5 mM glycine buffer [pH 9-11], supplemented with 100 mM NaCl) stirred at a constant temperature of 37° C. The esterase substrate tributyrin (final concentration of 2 mM) was added to 5 ml of the corresponding buffer at 37° C., emulsified and added to the whole preparation. This substrate emulsion was held constant at the correct pH automatically by the titrator (718 STAT Titrino; Metrohm, Herisau, Switzerland) for 2 min and this served as the control. […]

[4] = Titration assay with vinyl acid esters; settings: 10 mM, 37° C., pH 7.0
Method: (§1) Enzyme activities on the substrates triacetin, tripropionin, tributyrin, tricaprylene, trilaurin and vinyl-substrates (vinyl-acetate, ˜propionate, ˜butyrate, ˜caproate, ˜caprylate and ˜laurate) were determined using a standard titration assay with minor modifications. Tests were performed with a Methrom 718 STAT potentiometric titrator (Herisau, Switzerland) and by using 10 mM NaOH for titration. The substrates at 10 mM concentration were emulsified in 20 ml reaction buffer containing 2 mM Tris/HCl pH 7.0. After addition of 7.5 μg of the purified enzyme the NaOH consumption was recorded at a reaction temperature of 37° C. One unit was defined as the amount of enzyme that released […] of fatty acid per min.

[5] = Enzyme activity with pNP-acylesters of different chain length; settings: 4 mM, 45° C., pH 7.2
Method: Enzyme activity tests were performed by incubating the enzyme with 4 mM substrate at 45° C. in 100 mM Tris-HCl buffer at pH 7.2, unless otherwise indicated. The reaction was measured at 410 nm. One unit is defined as the amount of enzyme catalyzing the appearance of 1 μmol of free p-nitrophenol/min. Enzyme activity against pNP-acylesters (butyrate, valerate, caproate, octanoate, decanoate and palmitate) was tested under the above conditions. […] The enzyme according to SEQ ID NO: 6 converted pNP-caproate with a specific activity of 80.0 U/mg.

[6] = Effect of bivalent cations and EDTA on catalytic activity
[7] = Enantioselectivity, GC analysis of hydrolysis of acetic acid esters; settings: for conversion %: ^2 only complete conversion could be measured
Method: To assay the activity of the enzymes on a range of acetic acid esters gas chromatography was used. The samples were analyzed for the production of chiral alcohols by the gas chromatograph GC-17A (Shimadzu, Duisburg, Germany) equipped with FID detector and CP-Chirasil-DEX CB (Chrompack (Middelburg, Netherlands), 25 m×0.25 mm ID) at a helium flow of 1.3 ml/min. The temperature programme included: 5 min at 60° C., followed by an increase of 5° C. per min until 190° C. was reached. For the GC analysis, activity-tests were run in 1 M Tris buffered solutions and using 10 mM substrates dissolved in DMSO as 0.1 M stock solutions. 2 μg of the enzyme were added and tests incubated over night before the corresponding alcohols could be extracted by treatment with acetic acid ethyl ester and analyzed by GC.

[8] = Titration assay with triglycerides; settings: 10 mM, 37° C., pH 7.0
Method: as §1

[9] = substrate Acetic acid ester of tetrahydronaphthylamin
[10] = substrate acetic acid ester of (+/−)-1-octin-3-ol, 10 mM, over night
[11] = substrate acetic acid ester of cis-1,2-cyclohexandiol, values marked ^1: substrate conversion after 12 h
[12] = substrate acetic acid ester of phenylethylamin
[13] = substrate cis-3,5-diacetoxy-1-cyclopenten
[14] = substrate isopropylidenglycerolacetate (rac.), values marked ^1: substrate conversion after 12 h

B1: EstA3: recombinant enzyme having carboxyl esterase activity, amino acid sequence SEQ ID NO: 2, family VIII of bacterial lipolytic enzymes (protein)
chain: MSAEELGFLPDRLARISDHIQTNYLDNGKLPFASLLIGRGDDIALQWSSGVADDAIFRIASMTKPVTSVAFMQLVEQGKVALTDPVAKYIPEFAKLGVFVAGGGNIPFVSRPPTMPMRIVDVLRHTTGFTYSFQERSNIDAAYRKTDVESWTRSTSQSFIDTLAEIPLEFDPGTQWNYSVSTDVLGILIERISGQSLPDYFRDHIFAPLGMVDTCFTVPADKAARIPQCFAFDPATKMKLFDEAGASSLWTKGWSFNSGGGGLASSVADYHRFCRMLLNGGALDGIQIISPKTLELMTANHLPGGQDLTQMSKSLFSEAEMAGIGFGLGFATTIDSVATLTPCSTGDFYWGGMYSTAFFVDPVEDIIMIFMTQLMPSSTYPVRREIKTMIYSALAA
modifications: metagenomic sequence
thermal stability, in words ([1]; incubated for at least 60 minutes at 40° C.): without a major loss of activity | thermal stability, in words ([1]; incubation at temperatures above 45° C. for more than 60 minutes (data not shown)): rapid inactivation | Residual activity after 1 h incubation in the presence of solvent ([2]; 15% (v/v) Acetone): 152% | Residual activity after 1 h incubation in the presence of solvent ([2]; 15% (v/v) Acetonitrile): 110% | Residual activity after 1 h incubation in the presence of solvent ([2]; 15% (v/v) DMSO): 102% | Residual activity after 1 h incubation in the presence of solvent ([2]; 15% (v/v) Dimethylformamid): 125% | Residual activity after 1 h incubation in the presence of solvent ([2]; 15% (v/v) Isopropanol): 155% | Residual activity after 1 h incubation in the presence of solvent ([2]; 15% (v/v) Methanol): 111% | Residual activity after 1 h incubation in the presence of solvent ([2]; 30% (v/v) Acetone): 155% | Residual activity after 1 h incubation in the presence of solvent ([2]; 30% (v/v) Acetonitrile): 87% | Residual activity after 1 h incubation in the presence of solvent ([2]; 30% (v/v) DMSO): 104% | Residual activity after 1 h incubation in the presence of solvent ([2]; 30% (v/v) Dimethylformamid): 128% | Residual activity after 1 h incubation in the presence of solvent ([2]; 30% (v/v) Isopropanol): 117% | Residual activity after 1 h incubation in the presence of solvent ([2]; 30% (v/v) Methanol): 130% | activity in the presence of solvent, levels up to ([2]; acetone): ≤ 155% | activity in the presence of solvent, levels up to ([2]; dimethylformamide): up to 128% | stability under alkaline conditions, in words [3]: extremely stable with little loss of activity | specific activity ([4]; substrate vinyl acetate (C2)): 107.5 U/mg | specific activity ([4]; substrate vinyl butyrate (C4)): 387.5 U/mg | specific activity ([4]; substrate vinyl caproate (C6)): 237.5 U/mg | specific activity ([4]; substrate vinyl caprylate (C8)): 155.0 U/mg | specific activity ([4]; substrate vinyl laurinate (C12)): 7.5 U/mg | specific activity ([4]; substrate vinyl propionate (C3)): 380.0 U/mg | specific activity ([5]; substrate pNP-butyrate (C4)): 513.6 U/mg | specific activity ([5]; substrate pNP-caproate (C6)): 425.7 U/mg | specific activity ([5]; substrate pNP-decanoate (C10)): 0 U/mg | specific activity ([5]; substrate pNP-octanoate (C8)): 3.6 U/mg | specific activity ([5]; substrate pNP-palmitate (C16)): 0 U/mg | specific activity ([5]; substrate pNP-valerate (C5)): 425.7 U/mg | effect on activity, in words ([6]; Ca^2+, Cu2+, Mg^2+, Zn^2+, Rb^2+ and EDTA): inhibitory effect | stimulation of catalytic activity ([6]; in the presence of Co^2+): about 130% | hydrolysis, in words ([7]; acetic acid ester of R-(+)-3-chlor-1-phenyl-1-propanol): capable of hydrolyzing | hydrolysis, in words ([7]; acetic acid ester of rac-1-octin-3-ol): capable of hydrolyzing | hydrolysis, in words ([7]; acetic acid ester of trimethylsilylbutinol): capable of hydrolyzing | conversion % of 1.e [7, 9]: 0% | conversion % of 2.e [7, 9]: 0% | ee % ([7]; substrate acetic acid ester of (+/−)-1-octin-3-ol): 12% | conversion % of 1.e [7, 10]: 24% | conversion % of 2.e [7, 10]: 18% | conversion % ([7]; substrate acetic acid ester of R-(+)-3-chlor-1-phenyl-1-propanol): 6^2% | conversion % of 1.e [7, 11]: 0% | conversion % of 2.e [7, 11]: 0% | conversion % of 1.e [7, 12]: 0% | conversion % of 2.e [7, 12]: 0% | conversion % of 2.e ([7]; substrate acetic acid ester of trans-1,2-cyclohexandiol): 0% | conversion % of 1.e ([7]; substrate acetic acid ester of trans-1,2-cyclohexandiol, in text: conversion of the preferred enantiomer): 0% | conversion % ([7]; substrate acetic acid ester of trimethylsilylbutinol): 45^2% | conversion % of 2.e [7, 13]: 0% | ee % [7, 13]: 100% | conversion % of 1.e ([7]; substrate cis-3,5-diacetoxy-1-cyclopenten, conversion for the preferred enantiomer): 24% | conversion % of 1.e [7, 14]: 0% | conversion % of 2.e [7, 14]: 0% | conversion % of 1.e ([7]; substrate menthylacetate, 1. enantiomer (+)): 0% | conversion % of 2.e ([7]; substrate menthylacetate, 2.e. (−)): 0% | specific activity ([8]; substrate triacetin (C2)): 147.5 U/mg | specific activity ([8]; substrate tributyrin (C4)): 167.5 U/mg
